# Measured values taken from patent US20160250307A1.
# Biological target: HLA-A*02 (human)
# Assay: UV-ligand exchange, anti-b2m ELISA; grade: exchange yield >=50%
binder,measurement,value
SLTSEIHFL […],peptide exchange yield,50 to 75%
